Measured values published in patent US20130017550.

Sequence of GST-PKC-θ, Q04759 (Q04759 whole entry, looked up): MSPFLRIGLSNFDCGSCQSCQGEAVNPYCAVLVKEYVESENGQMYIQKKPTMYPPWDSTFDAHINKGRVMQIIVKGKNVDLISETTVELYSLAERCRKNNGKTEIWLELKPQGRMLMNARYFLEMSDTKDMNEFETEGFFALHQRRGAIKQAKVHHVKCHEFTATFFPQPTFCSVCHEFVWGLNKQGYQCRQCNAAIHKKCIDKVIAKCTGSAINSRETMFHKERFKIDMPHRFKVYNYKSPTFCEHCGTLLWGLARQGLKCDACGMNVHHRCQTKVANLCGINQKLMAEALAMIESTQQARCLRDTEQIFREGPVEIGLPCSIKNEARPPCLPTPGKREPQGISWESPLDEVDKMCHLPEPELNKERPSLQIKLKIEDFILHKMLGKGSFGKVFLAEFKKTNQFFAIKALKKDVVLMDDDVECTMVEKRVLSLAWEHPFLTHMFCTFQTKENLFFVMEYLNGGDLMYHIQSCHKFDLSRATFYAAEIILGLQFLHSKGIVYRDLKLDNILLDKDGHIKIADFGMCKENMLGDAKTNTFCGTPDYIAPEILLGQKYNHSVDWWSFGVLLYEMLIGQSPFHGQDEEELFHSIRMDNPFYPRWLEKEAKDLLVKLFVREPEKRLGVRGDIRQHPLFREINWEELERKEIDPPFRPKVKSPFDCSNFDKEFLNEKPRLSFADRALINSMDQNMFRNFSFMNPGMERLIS

B1: Flag-GLK (protein)
chain: MAQEDFELIQRIGSGTYGDVYKARNVNTGELAAIKVIKLEPGEDFAVVQQEIIMMKDCKHPNIVAYFGSYLRRDKLWICMEFCGGGSLQDIYHVTGPLSELQIAYVSRETLQGLYYLHSKGKMHRDIKGANILLTDNGHVKLADFGVSAQITATIAKRKSFIGTPYWMAPEVAAVERKGGYNQLCDLWAVGITAIELAELQPPMFDLHPMRALFLMTKSNFQPPKLKDKMKWSNSFHHFVKMALTKNPKKRPTAEKLLQHPFVTQHLTRSLAIELLDKVNNPDHSTYHDFDDDDPEPLVAVPHRIHSTSRNVREEKTRSEITFGQVKFDPPLRKETEPHHELPDSDGFLDSSEEIYYTARSNLDLQLEYGQGHQGGYFLGADKSLLKSVEEELHQRGHVAHLEDDEGDDDESKHSTLKAKIPPPLPPKPKSIFIPQEMHSTEDENQGTIKRCPMSGSPAKPSQVPPRPPPPRLPPHKPVALGNGMSSFQLNGERDGSLCQQQNEHRGTNLSRKEKKDVPKPISNGLPPTPKVHMGACFSKVFNGCPLKIHCASSWINPDTRDQYLIFGAEEGIYTLNLNELHETSMEQLFPRRCTWLYVMNNCLLSISGKASQLYSHNLPGLFDYARQMQKLPVAIPAHKLPDRILPRKFSVSAKIPETKWCQKCCVVRNPYTGHKYLCGALQTSIVLLEWVEPMQKFMLIKHIDFPIPCPLRMFEMLVVPEQEYPLVCVGVSRGRDFNQVVRFETVNPNSTSSWFTESDTPQTNVTHVTQLERDTILVCLDCCIKIVNLQGRLKSSRKLSSELTFDFQIESIVCLQDSVLAFWKHGMQGRSFRSNEVTQEISDSTRIFRLLGSDRVVVLESRPTDNPTANSNLYILAGHENSY
For B1, the “PKC-θ phosphorylation in in vitro kinase assays (immunoblot)” value (Myc-PKC-θ) was “GLK phosphorylated PKC-θ at T538, but not at S676 or S695” and the “PKC-θ-T538 phosphorylation in in vitro kinase assays using purified proteins (immunoblot)” value (GST-PKC-θ, Q04759) was “PKC-θ-T538 was directly phosphorylated by GLK”.
